Blank lines part the entries; values can stand above or below the substance they belong to.
Columns and labels:
[1] = biological target: CXCR4 isoform b, WT (352 a.a.) (human) (UniProt P61073); assay: flow cytometry on parental SupT1 cells, PE anti-mouse IgG secondary
HLA Class I [2] = assay: flow cytometry on SupT1 clone B4, PE anti-mouse IgG secondary
HLA Class I [3] = assay: flow cytometry on parental SupT1 cells, PE anti-mouse IgG secondary
HLA Class I [4] = assay: flow cytometry on SupT1 clone A66, PE anti-mouse IgG secondary
HLA Class I [5] = assay: flow cytometry on SupT1 clone B13, PE anti-mouse IgG secondary
ZFN 12290 (synthetic) = assay: cell_activity; conditions: K562, pair with 12281 (pairing inferred from adjacent sites), Surveyor assay
ZFN 12273 (synthetic) = assay: cell_activity; conditions: K562, pair with 12270, Surveyor assay; 34.6% in enriched SupT1 pool, >40% in primary CD4 T cells
ZFN 12281 (synthetic) = assay: cell_activity; conditions: K562, pair with 12290 (pairing inferred from adjacent sites), Surveyor assay
ZFN 12257 (synthetic) = assay: cell_activity; conditions: K562, pair with 12329 (pairing inferred from adjacent sites), Surveyor assay
ZFN 12270 (synthetic) = assay: cell_activity; conditions: K562, pair with 12273, Surveyor assay; 34.6% in enriched SupT1 pool, >40% in primary CD4 T cells
ZFN 12329 (synthetic) = assay: cell_activity; conditions: K562, pair with 12257 (pairing inferred from adjacent sites), Surveyor assay

Chain of UniProt P61073 (P61073 whole entry, canonical isoform): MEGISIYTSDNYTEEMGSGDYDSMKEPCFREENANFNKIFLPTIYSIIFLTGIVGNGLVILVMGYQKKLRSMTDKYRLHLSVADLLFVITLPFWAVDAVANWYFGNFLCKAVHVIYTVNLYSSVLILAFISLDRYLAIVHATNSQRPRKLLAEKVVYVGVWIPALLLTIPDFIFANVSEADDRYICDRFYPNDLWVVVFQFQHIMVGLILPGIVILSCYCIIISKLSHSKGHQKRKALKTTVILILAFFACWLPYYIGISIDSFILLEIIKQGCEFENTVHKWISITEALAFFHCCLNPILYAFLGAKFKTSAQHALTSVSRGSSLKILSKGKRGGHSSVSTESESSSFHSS

Mean Channel Fluorescence [1]: 35
Substance: anti-CXCR4 mAb (12G5) (antibody)

Mean Channel Fluorescence (HLA Class I [2]): 152
Mean Channel Fluorescence (HLA Class I [3]): 83
Mean Channel Fluorescence (HLA Class I [4]): 189
Mean Channel Fluorescence (HLA Class I [5]): 170
Substance: Anti-HLA Cl-I W6/32 (antibody)

Substance: CCAGAAGGGAAGCGTGATGACAAAGAGG (double strand) [CXCR4 12290 target]
activity (ZFN 12290 (synthetic)): > 20 % NHEJ

Substance: GGGTAGAAGCGGTCACAGATATATCTGT (double strand) [CXCR4 12273 target]
activity (ZFN 12273 (synthetic)): > 20 % NHEJ

Substance: CAGTTGATGCCGTGGCAAACTGGTACTT (double strand) [CXCR4 12281 target]
activity (ZFN 12281 (synthetic)): > 20 % NHEJ

Substance: AGTCAGAGGCCAAGGAAGCTGTTGGCTG (double strand) [CXCR4 12257 target]
activity (ZFN 12257 (synthetic)): > 20 % NHEJ

Substance: ATGACTTGTGGGTGGTTGTGTTCCAGTT (double strand) [CXCR4 12270 target]
activity (ZFN 12270 (synthetic)): > 20 % NHEJ

Mean Channel Fluorescence [1]: 136
Substance: anti-CXCR4 NT (4G10) (antibody)

Substance: TTGGTGGCGTGGACGATGGCCAGGTAGC (double strand) [CXCR4 12329 target]
activity (ZFN 12329 (synthetic)): > 20 % NHEJ

From patent US20100291048A1
